Results reported in patent publication US20110311550A1 (Scripps Research, published 2011).

Key:
[1] = biological target: T1, vaccinia-expressed E1E2 complex, isolate HCV-1 (genotype 1a) (hepatitis C virus, isolate HCV-1, UniProt P26664 192-383; P26664 384-746); assay: competition ELISA on HCV-1 E1E2; competitor m32 (AP320)
[2] = biological target: T1, vaccinia-expressed E1E2 complex, …; assay: competition ELISA on HCV-1 E1E2; competitor m36 (A4)
[3] = biological target: T1, vaccinia-expressed E1E2 complex, …; assay: competition ELISA on HCV-1 E1E2; competitor m20 (CBH-2)
[4] = biological target: T1, vaccinia-expressed E1E2 complex, …; assay: competition ELISA on HCV-1 E1E2; competitor m22 (CBH-7)
[5] = biological target: T1, vaccinia-expressed E1E2 complex, …; assay: competition ELISA on HCV-1 E1E2; competitor m1 (AR1A)
[6] = biological target: T1, vaccinia-expressed E1E2 complex, …; assay: competition ELISA on HCV-1 E1E2; competitor m5 (AR3B)
H77 E1E2 mutant H488A = H77 E1E2 mutant H488A (HCV isolate H77, UniProt P27958 192-383; P27958 384-746); assay: ELISA, alanine mutant E1E2
H77 E1E2 mutant Y489A = H77 E1E2 mutant Y489A (HCV isolate H77, UniProt P27958 192-383; P27958 384-746); assay: ELISA, alanine mutant E1E2
H77 E1E2 mutant W420A = H77 E1E2 mutant W420A (HCV isolate H77, UniProt P27958 192-383; P27958 384-746); assay: ELISA, alanine mutant E1E2
H77 E1E2 mutant P525A = H77 E1E2 mutant P525A (HCV isolate H77, UniProt P27958 192-383; P27958 384-746); assay: ELISA, alanine mutant E1E2
H77 E1E2 mutant W487A = H77 E1E2 mutant W487A (HCV isolate H77, UniProt P27958 192-383; P27958 384-746); assay: ELISA, alanine mutant E1E2
H77 E1E2 mutant D533A = H77 E1E2 mutant D533A (HCV isolate H77, UniProt P27958 192-383; P27958 384-746); assay: ELISA, alanine mutant E1E2
[7] = biological target: T2, E1E2 complex of HCV isolate H77 (genotype 1a), wild type (HCV isolate H77, UniProt P27958 192-383; P27958 384-746); assay: competition ELISA on H77 E1E2; competitor m38 (Fab N2)
[8] = biological target: T2, E1E2 complex of HCV isolate H77 …; assay: competition ELISA on H77 E1E2; competitor m37 (Fab N1)
[9] = biological target: T1, vaccinia-expressed E1E2 complex, …; assay: competition ELISA on HCV-1 E1E2; competitor m6 (AR3C)
[10] = biological target: T1, vaccinia-expressed E1E2 complex, …; assay: competition ELISA on HCV-1 E1E2; competitor m26 (AP33)
[11] = biological target: VSV (control pseudotype virus envelope); assay: cell-based or functional assay
[12] = biological target: E1E2 (Env) of HCV isolate UKN1B12.16 (genotype 1b) on HCVpp (hepatitis C virus, isolate UKN1B12.16); assay: cell-based or functional assay
[13] = biological target: T2, E1E2 complex of HCV isolate H77 …; assay: cell-based or functional assay
[14] = biological target: E1E2 (Env) of HCV isolate UKN5.15.7 (genotype 5) on HCVpp (hepatitis C virus, isolate UKN5.15.7); assay: cell-based or functional assay
[15] = biological target: E1E2 (Env) of HCV isolate J6 (genotype 2a) on HCVpp (hepatitis C virus, isolate J6, UniProt P26660 192-383; P26660 384-750); assay: cell-based or functional assay
[16] = biological target: E1E2 (Env) of HCV isolate UKN2A1.2 (genotype 2a) on HCVpp (hepatitis C virus, isolate UKN2A1.2); assay: cell-based or functional assay
[17] = biological target: E1E2 (Env) of HCV isolate OH8 (genotype 1b) on HCVpp (hepatitis C virus, isolate OH8); assay: cell-based or functional assay
[18] = biological target: E1E2 (Env) of HCV isolate UKN2B1.1 (genotype 2b) on HCVpp (hepatitis C virus, isolate UKN2B1.1); assay: cell-based or functional assay
[19] = biological target: E1E2 (Env) of HCV isolate UKN4.21.16 (genotype 4) on HCVpp (hepatitis C virus, isolate UKN4.21.16); assay: cell-based or functional assay
[20] = biological target: E1E2 (Env) of HCV isolate H (genotype 1a) on HCVpp (hepatitis C virus, isolate H); assay: cell-based or functional assay

B1: MAb AR1B (antibody, V domains shown)
VH: LESGGGLVQPGGSLRLSCEASGYYFSSFAMSWVRQTPGKGLEWVSSIAGGTLGRTSYRDSVKGRFTISRDNSKNTVFLHMNNLRPEDTAVYYCAKDPLLFAGGPNWFDHWGQGTLVTVSS
VL: not shown
notes: also called IgG1 of Fab D1
What does the source list for B1?
% residual binding [1]: 83%; % residual binding [2]: 103%; % residual binding [3]: 98%; % residual binding [4]: 20%; % residual binding [5]: 15%; % residual binding [6]: 80%; binding vs wild-type E1E2 (H77 E1E2 mutant H488A): 63%; binding vs wild-type E1E2 (H77 E1E2 mutant Y489A): 52%; binding vs wild-type E1E2 (H77 E1E2 mutant W420A): 41%; binding vs wild-type E1E2 (H77 E1E2 mutant P525A): 33%; binding vs wild-type E1E2 (H77 E1E2 mutant W487A): 70%; binding vs wild-type E1E2 (H77 E1E2 mutant D533A): 90%; % residual binding [7]: 100%; % residual binding [8]: 95%; % residual binding [9]: 66%; % residual binding [10]: 69%; Neutralizing activity (IC50) on control pseudotype virus [11]: > 50 µg/mL; Neutralizing activity (IC50) on HCVpp [12]: > 50 µg/mL; Neutralizing activity (IC50) on HCVpp [13]: > 50 µg/mL; Neutralizing activity (IC50) on HCVpp [14]: > 50 µg/mL; Neutralizing activity (IC50) on HCVpp [15]: > 50 µg/mL; Neutralizing activity (IC50) on HCVpp [16]: > 50 µg/mL; Neutralizing activity (IC50) on HCVpp [17]: > 50 µg/mL; Neutralizing activity (IC50) on HCVpp [18]: > 50 µg/mL; Neutralizing activity (IC50) on HCVpp [19]: > 50 µg/mL

B2: MAb AR1A (antibody, V domains shown)
VH: LEQSGAEVKKPGSSVKVSCRASGSPYSSYTITWVRQAPGQGLEWMGGIILMTGKANYAQKFQGRVTITADRATATAYMEMSSLTSDDTAIYYCARDPYVYAGDDVRSLSRWGQGTPVIVSS
VL: not shown
notes: also called IgG1 of Fab B2
With B2 as the binder, how does the “% residual binding” value [1] read?
The value was 84%.

And the “% residual binding” value [2]?
Its value is 97%.

What about the “% residual binding” value [3] of the same binder?
Its value is 83%.

And the “% residual binding” value [4]?
The value was 16%.

And the “% residual binding” value [5]?
The value was 15%.

What about the “% residual binding” value [6] of the same binder?
Its value is 53%.

And the “binding vs wild-type E1E2” value (H77 E1E2 mutant H488A)?
Its value is 91%.

What about the “binding vs wild-type E1E2” value (H77 E1E2 mutant Y489A) of the same binder?
The value was 189%.

What about the “binding vs wild-type E1E2” value (H77 E1E2 mutant W420A) of the same binder?
Its value is 141%.

And the “binding vs wild-type E1E2” value (H77 E1E2 mutant P525A)?
The value was 101%.

And the “binding vs wild-type E1E2” value (H77 E1E2 mutant W487A)?
The value was 89%.

And the “binding vs wild-type E1E2” value (H77 E1E2 mutant D533A)?
The value was 101%.

What about the “% residual binding” value [7] of the same binder?
The value was 82%.

What about the “% residual binding” value [8] of the same binder?
Its value is 83%.

And the “% residual binding” value [9]?
The value was 37%.

And the “% residual binding” value [10]?
Its value is 102%.

What about the “Neutralizing activity (IC50) on control pseudotype virus” value [11] of the same binder?
Its value is over 50 µg/mL.

What about the “Neutralizing activity (IC50) on HCVpp” value [12] of the same binder?
The value was over 50 µg/mL.

And the “Neutralizing activity (IC50) on HCVpp” value [13]?
Its value is over 50 µg/mL.

And the “Neutralizing activity (IC50) on HCVpp” value [14]?
Its value is over 50 µg/mL.

And the “Neutralizing activity (IC50) on HCVpp” value [15]?
Its value is over 50 µg/mL.

And the “Neutralizing activity (IC50) on HCVpp” value [16]?
Its value is over 50 µg/mL.

What about the “Neutralizing activity (IC50) on HCVpp” value [17] of the same binder?
The value was over 50 µg/mL.

And the “Neutralizing activity (IC50) on HCVpp” value [18]?
The value was over 50 µg/mL.

And the “Neutralizing activity (IC50) on HCVpp” value [19]?
Its value is over 50 µg/mL.

B3: MAb AR3C (antibody, V domains shown)
VH: LEQSGAEVKKPGSSVKVSCETSGGTLDNYALNWVRQAPGQGLEWIGGVVPLFGTTRNAQKFQGRVTISDDKSTGTGHMELRSLRSEDTAVYYCVRSVTPRYCGGGFCYGEFDYWGQGTLVTVSS
VL: ELTQSPATLSVSPGERATLSCRASQSVSSNLAWYQQKPGQAPRLLIYGASTRATGIPARFSGSGSGTEFTLTVSRLEPEDSAVYFCQQYYRSPLTFGGGTKVEIKR
notes: also called IgG1 of Fab H3
For B3, which “% residual binding” value [1] is on record?
Its value is 81%.

And the “% residual binding” value [2]?
The value was 93%.

What about the “% residual binding” value [3] of the same binder?
The value was 65%.

What about the “% residual binding” value [4] of the same binder?
The value was 39%.

What about the “% residual binding” value [5] of the same binder?
The value was 34%.

What about the “% residual binding” value [6] of the same binder?
Its value is 12%.

What about the “% residual binding” value [7] of the same binder?
The value was 116%.

What about the “% residual binding” value [8] of the same binder?
The value was 146%.

What about the “% residual binding” value [9] of the same binder?
The value was 8%.

What about the “% residual binding” value [10] of the same binder?
Its value is 33%.

And the “Neutralizing activity (IC50) on control pseudotype virus” value [11]?
The value was over 50 µg/mL.

And the “Neutralizing activity (IC50) on HCVpp” value [12]?
Its value is 1 µg/mL.

And the “Neutralizing activity (IC50) on HCVpp” value [13]?
Its value is 1 µg/mL.

And the “Neutralizing activity (IC50) on HCVpp” value [14]?
The value was 1 µg/mL.

And the “Neutralizing activity (IC50) on HCVpp” value [15]?
The value was 10 µg/mL.

What about the “Neutralizing activity (IC50) on HCVpp” value [16] of the same binder?
The value was 10 µg/mL.

What about the “Neutralizing activity (IC50) on HCVpp” value [17] of the same binder?
The value was 5 µg/mL.

What about the “Neutralizing activity (IC50) on HCVpp” value [18] of the same binder?
The value was 10 µg/mL.

What about the “Neutralizing activity (IC50) on HCVpp” value [19] of the same binder?
Its value is 1 µg/mL.

What about the “Neutralizing activity (IC50) on HCVpp” value [20] of the same binder?
Its value is 1 µg/mL.

B4: MAb AR2A (antibody, V domains shown)
VH: LEQSGAEMKKPGASLKVSCKTSGYTFDDYGVTWVRQAPGQGLEWMGWISAYSGNTFYARKFQGRVTMTTDPSTRTAYMELRSLRSDDTAVYFCARDRGLAINGVVFPYFGLDVWGQGTTVTVSS
VL: ELTQSPVSLPVTPGEPASISCRSSQSLLHSNGNHYLDWYLQKPGQSPQLLMYLGSNRASGVPDRFSGSGSGTDFTLKISRVEAEDVGVYYCMQGLQTPWTFGQGTKVEIKR
notes: also called IgG1 of Fab G
What does the source list for B4?
% residual binding [1]: 70%; % residual binding [2]: 92%; % residual binding [3]: 93%; % residual binding [4]: 17%; % residual binding [5]: 76%; % residual binding [6]: 92%; binding vs wild-type E1E2 (H77 E1E2 mutant H488A): 72%; binding vs wild-type E1E2 (H77 E1E2 mutant Y489A): 138%; binding vs wild-type E1E2 (H77 E1E2 mutant W420A): 80%; binding vs wild-type E1E2 (H77 E1E2 mutant P525A): 109%; binding vs wild-type E1E2 (H77 E1E2 mutant W487A): 93%; binding vs wild-type E1E2 (H77 E1E2 mutant D533A): 60%; % residual binding [7]: 86%; % residual binding [8]: 85%; % residual binding [9]: 86%; % residual binding [10]: 63%; Neutralizing activity (IC50) on control pseudotype virus [11]: > 50 µg/mL; Neutralizing activity (IC50) on HCVpp [12]: > 50 µg/mL; Neutralizing activity (IC50) on HCVpp [13]: 1 µg/mL; Neutralizing activity (IC50) on HCVpp [14]: 10 µg/mL; Neutralizing activity (IC50) on HCVpp [15]: > 50 µg/mL; Neutralizing activity (IC50) on HCVpp [16]: 5 µg/mL; Neutralizing activity (IC50) on HCVpp [17]: > 50 µg/mL; Neutralizing activity (IC50) on HCVpp [18]: 10 µg/mL; Neutralizing activity (IC50) on HCVpp [19]: 1 µg/mL; Neutralizing activity (IC50) on HCVpp [20]: 5 µg/mL
